experiment: soluble on expression in E. coli; label from the status in PepcDB or PDB records

Sequence	soluble on expression in E. coli
MINMKFFNRVEEIKEILSILEEEPNLIYFIYGPINSGKTALINEIINNRLDKNKYVVFYIDLREIFISKYDEFEAKLRATKTFGFRLIIEVLFEEYEDDKKPIEIIRSLIKDAPSLCGIPTPKNTLEEILKKKTTKNVFKYITNILMDIKREGKQPIIIIDELQKIGDMKINGFLIYELFNYFVSLTKHKHLCHVFCLSSDSLFIERVYNEAMLKERVDYILVDDFDKETALKFIDFLSEEILNKKLSDEDKELIYSYVGGKPILIINVIGKLKHKNLKDVLNILLMDEISKLKDFLSNLDYIKPKVNIEEEIIEIRKEDIINALKLFKGKYEIEVDKIPKAVYVYLVKKNILFLYPQRGTLKPQSFLVWNAIKRVL	not soluble
MINNSFWQGKRVFVTGHTGFKGGWLSLWLQTMGATVKGYSLTAPTVPSLFETARVADGMQSEIGDIRDQNKLLESIREFQPEIVFHMAAQPLVRLSYSEPVETYSTNVMGTVYLLEAIRHVGGVKAVVNITSDKCYDNKEWIWGYRENEAMGGYDPYSNSKGCAELVTSSYRNSFFNPANYGQHGTAVATVRAGNVIGGGDWALDRIVPDILRAFEQSQPVIIRNPHAIRPWQHVLEPLSGYLLLAQKLYTDGAEYAEGWNFGPNDADATPVKNIVEQMVKYWGEGASWQLDGNAHPHEAHYLKLDCSKAKMQLGWHPRWNLNTTLEYIVGWHKNWLSGTDMHEYSITEINNYMNTK	soluble
MINSPRVCIQVQSVYIEAQSSPDNERYVFAYTVTIRNLGRAPVQLLGRYWLITNGNGRETEVQGEGVVGVQPLIAPGEEYQYTSGAIIETPLGTMQGHYEMIDENGVPFSIDIPVFRLAVPTLIH	soluble
MIPEEIYKILRKQRYQIDGHTAVKLCGWVRKKMLEDKNCYKSKFYGIETHRCIQCTPSVIWCQQNCIFCWRVLPRDIGIDISQIKEPKWEEPEVVYEKILAMHKRIIMGYAGVLDRVGEKKFKEALEPKHVAISLSGEPTLYPYLDELIKIFHKNGFTTFVVSNGILTDVIEKIEPTQLYISLDAYDLDSYRRICGGKKEYWESILNTLDILKEKKRTCIRTTLIRGYNDDILKFVELYERADVHFIELKSYMHVGYSQKRLKKEDMLQHDEILKLAKMLDENSSYKLIDDSEDSRVALLQNENRKINPKL	soluble
MIPHTDIVHNLAEKVVVVRLEKPVTFHNMIAPGKEVEVSLLFFIINNSSSSQTNILAQLMDFFTGNGHLEDLSKISEPEALYAYIAEATA	not soluble
MIPLLAFAAWSGTGKTTLLKKLIPALCARGIRPGLIKHTHHDMDVDKPGKDSYELRKAGAAQTIVASQQRWALMTETPDEEELDLQFLASRMDTSKLDLILVEGFKHEEIAKIVLFRDGAGHRPEELVIDRHVIAVASDVPLNLDVALLDINDVEGLADFVVEWMQKQNG	soluble
MIPQIQTLQRLMKATKAARHTKMVNNLDMPFLASRLFVVPHMLASTKLDIILNALAPRLFAGEKFPIEAYSQGNTEAFRPPETYVVQNNIAIIPVHGTLVRRSAWLGALSGLTSYEGLRASFREAIAQPDVNAVLLDIDSGGGEAGGIFDLVEEFQTLSKQYAKPIWAHANEFACSAAYAIACAASQIWIARTGVVGSIGVVCAHLDQSLADEKQGLKWTFVFEGDHKTHGNSHEPLSDTAQIKMQADCALLYEMFVDWVAKNRPLSADAIRDTKAETFIGIQALELGLADAQGTLAQALEALTDSISQTPTATKEGQNTWHAHNTAPKKMMMKKLSTSSTKTKRTKTRATLMKTSTKTKMRTKINRKA	not soluble
MIQERKNLVTFGDQLVEAGRRLGRLCVGIDPHPSLLKQWGCDDGIAGLQRFTEICVEAFSGNVALVKPQVAFYEAWGAAGYQILESAISELRQAGTLVLSDAKRGDIGSTMAGYAQAWLAEESSLSSDAVTVSPFLGYGSLSPVLEVAASTNKGVFVLAATSNPEARSLQDRIGEDGLSISQLMVDSVALSNREHKENNHYGNVGVVIGATLAHPPQLERLNGPILLPGVGAQGATPADVARLTQGVQELAFANVSRGILKAGPSASALSTAISKFVEEFTN	not soluble
MIQEYQLRILPEIAASEQQLKAYLSQEKGLNQRDITALRTLKRSIDARQRTIYVNLKVRVYLNEMPKDDEYEHTIYNNVEGKPQVIVVGAGPGGLFAALRLIELGLRPVVVERGKDVRERKKDLAQISREHRVDPESNYSFGEGGAGAYSDGKLYTRSKKRGNVDKILNVFCQHGASTAILVDAHPHIGTDKLPRVIENMRNTIIECGGEVHFKTRMDALIIEQGEVKGIETNTGETFLGPVILATGHSARDVYRWLAANNVTIEAKGIAVGVRLEHPAGLIDQIQYHNRSGRGKYLPAAEYSFVTQVDGRGVYSFCMCPGGFIVPAASGPEQVVVNGMSPSNRGSRWSNSGMVVEIQPEDIINDKRLTVNNEAEETFPELAVLHFQEELERQCWLQGGRRQTAPAQRMVDFTRKKLSYDLPESSYSPGLISSPLHFWMPEFIAGRLSQGFQQFGRSSHGFLTNEAVMIGVETRTSSPVRIVRDKDTLQHITLRGLFPCGEGAGYAGGIVSAGIDGERCAEAVAQFMNPLEHHHHHH	soluble
MIRELFEKEGFTLDEEQERKFSIYLQELLRWNKVHNLTSIKKPEEIVRRHFIDSVSVVRCFERIGLDLRGKHFADVGSGAGFPGVPLKIYLKDIKLTLIESVSKKCSFLEYLKIKLNEDYRVLCTRAEKVEEKFDVVLARALGEFEEVKEILEKLSIGYVFVYKGSKLKEEWLKDYKLCELSLSFMPKSYILWKKV	soluble
MIRFEIHGDNLTITDAIRNYIEEKVGKLERYFNNVPNAVAHVRVKTYSNSTTKIEVTIPLKDVTLRAEERHDDLYAGIDLITNKLERQVRKYKTRVNRKHRDRGDQDIFVAEVQESTTNNHADDIESENDIEIIRSKQFSLKPMDSEEAVLQMNLLGHDFFIFTDRETDGTSIVYRRKDGKYGLIETTELEHHHHHH	soluble
MIRGEYLLRELNQNILLQSCQEFVKDYLDTICSFYLGKEVWYRFTELTNTEANCLVGTKEFFDEGHPLFGYRGTRRLLACLDEFQAEAHVVTEVYQTNPNLSVIFPFVNDADQLKQAITVLRQQGFTGKVGTMIELPSAYFDLSSILETGISKIVVGMNDLTSFVFATMRNSQWHDMESPIMLDMLRDMQDKARKNKIDFAVAGYLNTSFIQKMNQLGIKCIIHYSSIPEIFDLEIDHPDHLKHIKEESKKLQRSTHDTARNVE	soluble
MIRISDAAQAHFAKLLANQEEGTQIRVFVINPGTPNAECGVSYCPPDAVEATDTALKFDLLTAYVDELSAPYLEDAEIDFVTDQLGSQLTLKAPNAKMRKVADDAPLMERVEYMLQSQINPQLAGHGGRVSLMEITEDGYAILQFGGGCNGCSMVDVTLKEGIEKQLLNEFPELKGVRDLTEHQRGEHSYY	soluble
MIRITLHTYCISELFSGDLELFASKLEETSQNQKTYSTPRSSDFRAILPTYSTPRSSDFGAILPIHSTTRLSNLSSGHSMTLLDPLVEYHFATLPDNTRPFTLPSYSTPWSSIITHHHQHHSTGHSITSSQSTQIRTQPDKLSTRKRRGEDKVFGSGLDLHRIKKPISAHYLSMGRAIRLLARLLSFYFVLYK	soluble
MIRLPLLPTVIKNLFKKPATNPFPKTEPVPVPEDFRGKLVYNVDKCVGCRMCVTVCPAGVFVYLPEIRKVTLWIGRCVMCKQCVDVCPTAALQMSDEFLLASYDKYDAKLIYLTPEEAEDIKKKLEEANKAKAEKQASK	not soluble
MIRQTPLEKRYDKLGPHIVTALKKRYFDAYYCKTRNEALQQILDLIPQNHVVSWGGSETLKEMGVQTAVREKGFKVIDRDLAKTPEERTEIMRQALLCDTFLMSSNAISEDGQLFNIDGNGNRVAAMIFGPKNVIVVAGMNKIVKNIDDAIQRTRTVASPAVVQRFQDVNTPCYINGSCIDCTSPESICAYMVTTRISRPAKKIKVILVGENLGLLEHHHHHH	soluble
MIRYMIKESRMELIEENMKHLQDRLKTAKENEMSAKTVRHDFRHHNQNIATMIQKGETNEALHYIEQYNESLDAARTKEFCSHVTVNAILSSFYIKAQNDGICISIEADTQEGTNISDMDFVAILSNILENAVNGCKECGAHGKINVNIRTVSDKTVIVCSNSCKPGLVIENNMIKHRGIGIESMLTAARKYDGDISYRLENDVLTLCVILKK	not soluble
MISAGIDPGTGSYDVVAIEDGKVVFRKNIPTEEVRASPDVIVEVIEESGAEVAAGLSGYGLPVKRFSELDEVDLLLMTLNFDSERAIGLRNIIKAVKERNVNLYTVPAVIHLPTVPPWRKMNRIDIGTADKLCSAVLAVAKLSEEEELTKLNFILAEVGEGFNAFIAVRNGRIVDGMGGTTSFPGYSSLGAMDAELAYIIGEFPKKLIFSGGVKSFASEWKVNENEVTNILSEFVLKGIRAMEVSTDADFYMLSGRFAPDVLRKLRGEGKEVRLLGGFGRGKQSAQGAAIIANAIAGGEYREIVDYMRIFEAKGTLLDYITSDIMEYVRRGLKRRGD	not soluble
MISEGCEQCAKGGKMVLFVYGYCDQRDCFYCPLGENRKNVTQMYANERPIEDDADVIEEAKRMSALGTSITGGEPQEVLDRTCHYLELLKDEFGEDHHTHLYTGIPGGRENMRRLSEAGLDEIRFHPPLEQWGDLHGTEWEDILYIAREEGLTPAFEIPGIRAEEEFLEFLDEGAADFCNINEFEMSDGNYRRMQEEGFELKEDHMSAVEGSHDILEKMGDHEKVYFCTSVFKDAAQHRSRLKRMARNIRRPFDDVTDDGTLVYGKAWTSEARLETLGVPEEYYTVKSEHVELAWWLLEEMVEEGDVEKGEIVEQYPTYDGTVVERTPLSNGADAGRATADD	not soluble
MISEKPAAKRIQSGGCAIHCQDCSISQLCIPFTLNESELDQLDQIIERKKPIQKGQELFKAGDELRSLYAIRSGTIKSYTITEQGDEQITAFHLAGDLVGFDAITGDQHPSFAQALETSMVCEIPYEILDDLSGKMPKLRQQIMRLMSNEIKGDQEMILLLSKKNAEERLAAFLYNLSTRFSQRGFSPREFRLTMTRGDIGNYLGLTVETISRLLGRFQKSEILSVKGKYITILNHAELMELAGVSKESK	soluble
MISILHVAARVLELRPSCDKMKLYKLCYFSQGWHLAWTGRPLFNEELQAWKYGAVSPTLRQASGLRADDDRLVTQIWSGDSSQLIDYERSVVDTVVSFYGDLESFHLSDLSHGFAWSTVRGNLPPDASCSDVIPHSLIRREFVENAWGEAPTPNAPERLPSMALDALEQAADDVAAENAETLRLLAFI	not soluble
MISNIFKISAALLLLTIVSEAKPCFGRCGGRPPPPCGLPPFLEDLPSDVQTKITEIWKDYKEGDKCYEEQGLTREIMESLPKDVRKSIHKRPPLPFLRGLPKDILAKFDAIFKDKSIPFSEKPEKIDALAQEVLTGDNLKKFQEFKEKKEKEMQEYKDKESKLSAAAKVANEKLEALGKQKFAILEELDENVKDELFDLWKSRPHGPPRHH	not soluble
MISNKNIFNRFQQWMDTFLMLELQWFLIYANVANQMIVYGCCQMSKKTSNETPKVFLMLGHFFVSLKYPGATETKNWSKKLPFHYFHKYV	not soluble
MISRPESSLSGLESSQEVQKKTWNPRNYSARLTENIGLPLILLEKHNPWPAYVAYISPAVTRITEKGWARDLEYIYAAEKNGKPVKRSKHSAVLLKRRKPSKPSELMLKETLSETMLPTWECSTIYVSPTFVPEPAQLQMDVREGPTSNYNKIIFSKRPAMRKLPFGLLQASKEMHTKD	soluble
